Experimental data taken from the supplement of paper PMC9170038.

Tests used:
MS2 coat protein [1] = experiment: apparent KD of MS2 coat protein, switch ON state; designed switch direction (-1 OFF switch, 1 ON switch): 1; higher = weaker reporter binding; details: FMN input: 0 or 200 uM; Eterna round: R93 (includes R88 designs)
In short: (§1)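 Normalised binding curves from single clusters were fitted, and the median fit for each design is given as apparent KD. The clusters held designed RNA switches transcribed on-chip from Illumina sequencing clusters. These were titrated with SNAP-549-labelled MS2 coat protein (twofold steps from 0.7 or 1.5 nM to 3 µM, 0.8–1.5 h to 10–20 min per step) in 100 mM Tris-HCl pH 7.5, 80 mM KCl, 4 mM MgCl2, without or with constant ligand.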

MS2 coat protein [2] = experiment: apparent KD of MS2 coat protein, switch OFF state (with FMN for OFF switches, without FMN for ON switches); designed switch direction (-1 OFF switch, 1 ON switch): 1; higher = weaker reporter binding; details: FMN input: 0 or 200 uM; Eterna round: R93 (includes R88 designs)
In short: as §1

Sequence	apparent KD of MS2 coat protein (MS2 coat protein [1])	apparent KD of MS2 coat protein (MS2 coat protein [2])
AGAAAUAAAGCUGAGGAUAUGGGAAAAUUCACAUGAGGAUCACCCAUGUAAAAGAAAAUAAAAAACCAGAAGGCAGCAAAUAAGA [Designing denovo 6]	27.6 nM	49.8 nM
AAAACCUGCGUCGAGGAUAUGUAGCCCACUACAUGAGGAUCACCCAUGUGGAUCUUACUGGGUCGACAGAAGGUGAAAGUUAGGC [Onlele]	36.3 nM	34.7 nM
AGAAAUAAAACACAGGAUAUGAAAAAGAAAACAUGAGGAUCACCCAUGUAAAAGAAAAAUAAAAAUCAGAAGGGUGAAAAUAAAG [Put G segment last in JL design (80%)]	59 nM	205 nM
AAAUAAAGGAUUAAGGAUAUAUCACAUGAAACAUGAGGAUCACCCAUGUAAUAAUAUAAAGGGUGAUAGAAGGUAGUUUAUAAAUA [High Roller2]	295 nM	242 nM
AAACCACAUGAGGAUCACCCAUGUAAAAAAUAUGGAGGAUAUACUAGAAGAAACAAAAUAGUAGAAGGCCAAAAAA [75%, Ex sub1, 29]	20.3 nM	24.6 nM
GAAAAACAUGAGGAUCACCCAUGUGAUAACAUGGGAGGAUAUACAUGGACGAUAGUCAAAGUAGAAGGCCUAAAAG [Garnet 62]	104 nM	32.1 nM
AAAAAACAUGAGGAUCACCCAUGUAAUACAACGUCAGGAUAUUGAUUUUAUUAUGUAUUGCAAGAAGGGACAAAAA [Same State 1.3 (Same State 1 - Omei 2 - one GC added)]	161 nM	144 nM
AAAAGACAUGAGGAUCACCCAUGUUAAGACGUGGGAGGAUAUGCAUGGAAAACAUGCUGUGCAGAAGGCCCGUGUC [SS1 - 23]	19.8 nM	78.6 nM
AAAAAACAUGAGGAUCACCCAUGUCAAAAGACGUGAGGAUAUGUACAGACUUCGGUCUGUACAGAAGGCACGUCAA [SS1 - 1043]	15.9 nM	20.4 nM
AAUCCAAAUAGUUAGGAUAUGGGAAUUAAGACAUGAGGAUCACCCAUGUAAUUAAAACAAGUUAACCAGAAGGGACAGGGUGAAA [JR_SS002_Sub207]	160 nM	112 nM
AAGAAAGAAACGCAGGAUAUGCAAAACAAAACAUGAGGAUCACCCAUGUCUUACUUACAAACAAAGCAGAAGGGCGAAAGAAAGAA [Same State 2 B]	16.4 nM	20 nM
AAGAAACAUGAGGAUCACCCAUGUAGAAAUAUGGGAGGAUAUACGAAGACGAAAGUCAAAGUAGAAGGCCUAAAAG [Mat - Same State 1 - Eli mod - D107]	21 nM	68.7 nM
AAGAAACAUGAGGAUCACCCAUGUAAACUCGAGAGAGGAUAUGGUACAUGGAAGAUCCAACUAGAAGGCUCUGGAG	38.6 nM	17.6 nM
AAGAAACAUGAGGAUCACCCAUGUGAGAUAAACACAGGAUAUGCGAAAAGAAAUAAAGAAGCAGAAGGGUGAAGAA [Mat - Same State 1 - Tesla mod - 71]	20.5 nM	94.1 nM
AAAAGACAUGAGGAUCACCCAUGUGAAAACGUGCGAGGAUAUGUAUGGAAACCAUACUGUACAGAAGGCGCGUGUC [SS1 - 83]	24.4 nM	32.3 nM
AAAAGACAUGAGGAUCACCCAUGUAAAAACAUAGGAGGAUAUGUCAUGAAAAAAGACUUGACAGAAGGCCUUUGUC [SS1 - 49]	42 nM	69.8 nM
CGUGAACAUGAGGAUCACCCAUGUGAAAAACAUAGAGGAUAUGUCACGUGAGUGUAAAAGACAGAAGGCUAUCGUG [Mod 3 of Round 1 starryjess' Mod pf Nando]	36.5 nM	74.1 nM
AAAAAACAUGAGGAUCACCCAUGUCCUCGGACGUGAGGAUAUGUACAGACUUCGGUCUGUACAGAAGGCACAAAAA [SS1 - 1034]	1240 nM	333 nM
AAAAAACAUGAGGAUCACCCAUGUGCAAAAUUCGCAGGAUAUUCUUUUUUUAAAUGAGAGGGAGAAGGGUGUAAAA [Nob's Hobby 21 - Jieux - Same State 1]	25.5 nM	22.4 nM
CGGAGACAUGAGGAUCACCCAUGUGAGAAGAGGCGAGGAUAUCGAAAAAAAAAAAAAAAACGAGAAGGCGCGAGAC [salish99-SS1-011]	28.5 nM	51.4 nM
AAGAAACAUGAGGAUCACCCAUGUGAGAUAAACACAGGAUAUGCAAAAGAAAGAAAGAAAGCAGAAGGGUGAAGAA [Mat - Same State 1 - Tesla mod - 51]	21.6 nM	129 nM

Sequence	apparent KD of MS2 coat protein (MS2 coat protein [1])	apparent KD of MS2 coat protein (MS2 coat protein [2])
AACAAUCUAUCUGAGGAUAUAUGUCAAAAGACAUGAGGAUCACCCAUGUAAAAACAUGAAAAAUCAUAGAAGGCAGAUAGAUUGA [SS2: 1135]	67.3 nM	88.3 nM
CAUCAACAUGAGGAUCACCCAUGUCAGUGAUGUCAAGGAUAUGGGAGACAUAAAAUUCUUCUAGAAGGUGAAAGAU [Orlaanar]	209 nM	125 nM
AAAAAACAUGAGGAUCACCCAUGUAUAAAAAUGGGAGGAUAUACUAAGACGAAAGUCAUAGUAGAAGGUCUAAAAA [76%, Meechl, 11]	137 nM	241 nM
AAAGAAAAACUAGAGGAUAUCUGAAUGGUAACAUGAGGAUCACCCAUGUGAAGAAAGGAACAUGAGGAGAAGGCUAGAAGAAAAA [JL Nando mod 17]	11.4 nM	35.4 nM
UUAAGCCACGGGCAGGAUAUGUAUUAAAAUACAUGAGGAUCACCCAUGUGCAGGUGUAACACCUGACAGAAGGGCCAAUCGCGGC [Soondi]	21.5 nM	241 nM
AAAUAAAUGACUAAGGAUAUCUCAGAGAAAACAUGAGGAUCACCCAUGUAAUAAUAACAUGAGUGAGAGAAGGUAGUCAACAAAC [Same State 2.3 (Pariah 4 -changed stack on 9nt hairpin)]	24.3 nM	57.5 nM
AAAUAAAUGACUAAGGAUAUAUCGAAGAAGACAUGAGGAUCACCCAUGUGAUAAUAAAAAGGGUGGUAGAAGGUAGUCAACAAAC [Mod 5 of Pariah 4 by Hyphema in Round 1]	65.4 nM	116 nM
UAAAUACAUGAGGAUCACCCAUGUCAAGAGUAUUAAGGAUAUGAACCAGGGAACUGGCAGUCAGAAGGUGAGACUC [Ququeddi]	235 nM	65.2 nM
AAAACACAUGAGGAUCACCCAUGUGCAAAAUUCGCAGGAUAUUUCUCAAUUAAAUGAAAGGAAGAAGGGUGAUAAA [Nob's Hobby 34 - Jieux - Same State 1]	19.4 nM	29.4 nM
GAGAAACAUGAGGAUCACCCAUGUAGAAAUAUGGGAGGAUAUACAGAGACGAGAGUCAAAGUAGAAGGCCUAGAAG [77%, Mat - Mod of Eli - With 4 more G's]	32.1 nM	66.1 nM
GAUAGACAUGAGGAUCACCCAUGUAGAAUUAUGGGAGGAUAUACAAAGACGAGAGUCAGAGUAGAAGGCCUAGGAC [salish99-ss1-159]	23.6 nM	58.6 nM
AACAAUCUAUCUGAGGAUAUGUGUCGAAAGACAUGAGGAUCACCCAUGUAAAAACAUGGGAAGAUACAGAAGGCAGAUAGAUUGA [SS2: 1161]	203 nM	29.3 nM
AAAAUAAAAUAAAAGGAUAUAAAAAUAUAUACAUGAGGAUCACCCAUGUAUAUAAAAAUAAAAUAAAAGAAGGAAUAAAAAUAAA [SS2 507: MS2 7]	22.7 nM	18.9 nM
AAAAUAAAAAGGUAGGAUAUGGGUAAACCUACAUGAGGAUCACCCAUGUAAUAAAAAGAAAAAAACCAGAAGGACCAAAAUAAAA [72%, More Wateronthemoon, 9]	12.8 nM	55.2 nM
GAAAAACAUGAGGAUCACCCAUGUAGAAAUAUGGGAGGAUAUACUAUGACGAAAGUCAAAGUAGAAGGUCUAAAAG [JL S1 M-MoE mod 6 In the Read]	166 nM	125 nM
AGAAAACAUGAGGAUCACCCAUGUGACAAUAUGGGAGGAUAUACGAACACGAAAGUCGAAGUAGAAGGCCUAAAGA [Garnet 53]	26.3 nM	75.7 nM
GUAUAUAUAAGACAGGAUAUCCGAAAGUAAACAUGAGGAUCACCCAUGUAAAGAAAGAAACUCAUGGAGAAGGGUCAAUAUAUAC [Mat - Same State 2 - Tesla mod - D83]	22.2 nM	66.7 nM
AAAAACAUGGUGUAGGAUAUAUUAAUAGUCACAUGAGGAUCACCCAUGUUCAUAUAUAUGAACGAGUAGAAGGACGAUGAAAAAA [Mat - Same state - Malcolm Mod - D108]	244 nM	237 nM
AAGAAAGAAACGUAGGAUAUCAAGAAUAUAACAUGAGGAUCACCCAUGUAAAUACGAAAGUAUAAUGAGAAGGAUGGAUGAUCUUC [Mod of Mat of Meechl]	22.7 nM	32.8 nM
UAAAAACAUGAGGAUCACCCAUGUAAGAUAAACACAGGAUAUGCGAAAAGAAAGAAAGAAGCAGAAGGGUGAAAAU [Mat - Same State 1 - Tesla mod - 43]	15.9 nM	41.6 nM
AGCACGUGAUUGGAGGAUAUGUAGUAAGCAACAUGAGGAUCACCCAUGUCUGAGGCUGAAAACCAGCAGAAGGCCGAUACAACCA [SS2-1.6]	15.3 nM	22.7 nM
